# Experimental data from patent US20240350588A1 (SUNSHINE LAKE PHARMA, published 2024).
# T1: human GFRAL (UniProtKB-Q6UXVO) (human, UniProt Q6UXV0 19-394)
# T1 sequence (looked up): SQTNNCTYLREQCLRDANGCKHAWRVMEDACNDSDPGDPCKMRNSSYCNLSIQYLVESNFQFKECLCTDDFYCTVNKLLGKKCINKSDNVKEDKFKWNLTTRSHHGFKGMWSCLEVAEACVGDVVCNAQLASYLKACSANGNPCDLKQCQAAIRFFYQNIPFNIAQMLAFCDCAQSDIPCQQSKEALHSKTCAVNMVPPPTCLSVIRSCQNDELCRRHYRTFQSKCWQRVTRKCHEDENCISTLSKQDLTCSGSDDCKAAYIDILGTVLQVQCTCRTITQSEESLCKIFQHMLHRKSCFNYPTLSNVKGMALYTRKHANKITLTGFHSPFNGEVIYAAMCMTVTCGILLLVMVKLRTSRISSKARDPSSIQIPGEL
# Molecular target: T1, human GFRAL (UniProtKB-Q6UXVO)
# Assay: cell-based or functional assay
row,"Relative activity ratio (native GDF15 EC50: Fc-GDF15 construct EC50), ERK1/2 phosphorylation HTRF in HEK293T cells expressing human GFRAL and RET [ratio]",Binder
1,3.27,Fc-GDF15 fusion protein M2 (Fc fusion) APEAAGGPSVFLFPPKPKDTLMISRTPEVTCVVVDVSQEDPEVQFNWYVDGVEVHNAKTKPREEQFNSTYRVVSVLTVLHQDWLNGKEYKCKVSNKGLPSSIEKTISKAKGQPREPQVYTLPPSQEEMTKNQVSLTCLVKGFYPSDIAVEWESNGQPENNYKTTPPVLDSDGSFFLYSRLTVDKSRWQEGNVFSCSVMHEALHNHYTQESLSLSLGGGGGSGGGGSAPAPAPAPAPAPAPAPAPAPGGGGSGGGGSARNGDHCPLGPGRCCRLHTVRASLEDLGWADWVLSPREVQVTMCIGACPSQFRAANMHAQIKTSLHRLKPDTVPAPCCVPASYNPMVLIQKTDTGVSLQTYDDLLAKDCHCI
2,1.89,Fc-GDF15 fusion protein M13 (Fc fusion) EAAGGPSVFLFPPKPKDTLMISRTPEVTCVVVDVSQEDPEVQFNWYVDGVEVHNAKTKPREEQFNSTYRVVSVLTVLHQDWLNGKEYKCKVSNKGLPSSIEKTISKAKGQPREPQVYTLPPSQEEMTKNQVSLTCLVKGFYPSDIAVEWESNGQPENNYKTTPPVLDSDGSFFLYSRLTVDKSRWQEGNVFSCSVMHEALHNHYTQESLSLSLGGGGGSGGGGSAPAPAPAPAPAPAPAPAPAPGGGGSGGGGSDHCPLGPGRCCRLHTVRASLEDLGWADWVLSPREVQVTMCIGACPSQFRAANMHAQIKTSLHRLKPDTVPAPCCVPASYNPMVLIQKTDTGVSLQTYDDLLAKDCHCI
3,3.87,Fc-GDF15 fusion protein M21 (Fc fusion) APEAAGGPSVFLFPPKPKDTLMISRTPEVTCVVVDVSQEDPEVQFNWYVDGVEVHNAKTKPREEQFNSTYRVVSVLTVLHQDWLNGKEYKCKVSNKGLPSSIEKTISKAKGQPREPQVYTLPPSQEEMTKNQVSLTCLVKGFYPSDIAVEWESNGQPENNYKTTPPVLDSDGSFFLYSRLTVDKSRWQEGNVFSCSVMHEALHNHYTQESLSLSLGGGGGSGGGGSAPAPAPAPAPAPAPAPAPAPGGGGSGGGGSDCPLGPGRCCRLHTVRASLEDLGWADWVLSPREVQVTMCIGACPSQFRAANMHAQIKTSLHRLKPDTVPAPCCVPASYNPMVLIQKTDTGVSLQTYDDLLAKDCHCI
4,3.38,Fc-GDF15 fusion protein M23 (Fc fusion) APEAAGGPSVFLFPPKPKDTLMISRTPEVTCVVVDVSQEDPEVQFNWYVDGVEVHNAKTKPREEQFNSTYRVVSVLTVLHQDWLNGKEYKCKVSNKGLPSSIEKTISKAKGQPREPQVYTLPPSQEEMTKNQVSLTCLVKGFYPSDIAVEWESNGQPENNYKTTPPVLDSDGSFFLYSRLTVDKSRWQEGNVFSCSVMHEALHNHYTQESLSLSLGGGGGSGGGGSAPAPAPAPAPAPAPAPAPAPGGGGSGGGGSECPLGPGRCCRLHTVRASLEDLGWADWVLSPREVQVTMCIGACPSQFRAANMHAQIKTSLHRLKPDTVPAPCCVPASYNPMVLIQKTDTGVSLQTYDDLLAKDCHCI
5,1,"natural GDF15 (ACROBiosystems, GD5-H5149) (ligand) ARNGDHCPLGPGRCCRLHTVRASLEDLGWADWVLSPREVQVTMCIGACPSQFRAANMHAQIKTSLHRLKPDTVPAPCCVPASYNPMVLIQKTDTGVSLQTYDDLLAKDCHCI"
6,1.33,Fc-GDF15 fusion protein M9 (Fc fusion) APEAAGGPSVFLFPPKPKDTLMISRTPEVTCVVVDVSQEDPEVQFNWYVDGVEVHNAKTKPREEQFNSTYRVVSVLTVLHQDWLNGKEYKCKVSNKGLPSSIEKTISKAKGQPREPQVYTLPPSQREMTKNQVSLTCLVKGFYPSDIAVEWESNGQPENNYKTTPPVLDSDGSFFLYSRLTVDKSRWQEGNVFSCSVMHEALHNHYTQKSLSLSLGGGGGSGGGGSAPAPAPAPAPAPAPAPAPAPGGGGSGGGGSDHCPLGPGRCCRLHTVRASLEDLGWADWVLSPREVQVTMCIGACPSQFRAANMHAQIKTSLHRLKPDTVPAPCCVPASYNPMVLIQKTDTGVSLQTYDDLLAKDCHCI
7,2.65,Fc-GDF15 fusion protein M24 (Fc fusion) APEAAGGPSVFLFPPKPKDTLMISRTPEVTCVVVDVSQEDPEVQFNWYVDGVEVHNAKTKPREEQFNSTYRVVSVLTVLHQDWLNGKEYKCKVSNKGLPSSIEKTISKAKGQPREPQVYTLPPSQEEMTKNQVSLTCLVKGFYPSDIAVEWESNGQPENNYKTTPPVLDSDGSFFLYSRLTVDKSRWQEGNVFSCSVMHEALHNHYTQESLSLSLGGGGGSGGGGSAPAPAPAPAPAPAPAPAPAPGGGGSGGGGSDHCPLGPGRCCRLHTVQASLEDLGWADWVLSPREVQVTMCIGACPSQFRAANMHAQIKTSLHRLKPDTVPAPCCVPASYNPMVLIQKTDTGVSLQTYDDLLAKDCHCI
8,4.76,Fc-GDF15 fusion protein M25 (Fc fusion) APEAAGGPSVFLFPPKPKDTLMISRTPEVTCVVVDVSQEDPEVQFNWYVDGVEVHNAKTKPREEQFNSTYRVVSVLTVLHQDWLNGKEYKCKVSNKGLPSSIEKTISKAKGQPREPQVYTLPPSQEEMTKNQVSLTCLVKGFYPSDIAVEWESNGQPENNYKTTPPVLDSDGSFFLYSRLTVDKSRWQEGNVFSCSVMHEALHNHYTQESLSLSLGGGGGSGGGGSAPAPAPAPAPAPAPAPAPAPGGGGSGGGGSDHCPLGPGRCCRLHTVHASLEDLGWADWVLSPREVQVTMCIGACPSQFRAANMHAQIKTSLHRLKPDTVPAPCCVPASYNPMVLIQKTDTGVSLQTYDDLLAKDCHCI
9,1.42,Fc-GDF15 fusion protein M22 (Fc fusion) APEAAGGPSVFLFPPKPKDTLMISRTPEVTCVVVDVSQEDPEVQFNWYVDGVEVHNAKTKPREEQFNSTYRVVSVLTVLHQDWLNGKEYKCKVSNKGLPSSIEKTISKAKGQPREPQVYTLPPSQEEMTKNQVSLTCLVKGFYPSDIAVEWESNGQPENNYKTTPPVLDSDGSFFLYSRLTVDKSRWQEGNVFSCSVMHEALHNHYTQESLSLSLGGGGGSGGGGSAPAPAPAPAPAPAPAPAPAPGGGGSGGGGSDECPLGPGRCCRLHTVRASLEDLGWADWVLSPREVQVTMCIGACPSQFRAANMHAQIKTSLHRLKPDTVPAPCCVPASYNPMVLIQKTDTGVSLQTYDDLLAKDCHCI
10,1.62,Fc-GDF15 fusion protein M10 (Fc fusion) APEAAGGPSVFLFPPKPKDTLMISRTPEVTCVVVDVSQEDPEVQFNWYVDGVEVHNAKTKPREEQFNSTYRVVSVLTVLHQDWLNGKEYKCKVSNKGLPSSIEKTISKAKGQPREPQVYTLPPSQQEMTKNQVSLTCLVKGFYPSDIAVEWESNGQPENNYKTTPPVLDSDGSFFLYSRLTVDKSRWQEGNVFSCSVMHEALHNHYTQKSLSLSLGGGGGSGGGGSAPAPAPAPAPAPAPAPAPAPGGGGSGGGGSDHCPLGPGRCCRLHTVRASLEDLGWADWVLSPREVQVTMCIGACPSQFRAANMHAQIKTSLHRLKPDTVPAPCCVPASYNPMVLIQKTDTGVSLQTYDDLLAKDCHCI
11,2.91,Fc-GDF15 fusion protein M26 (Fc fusion) APEAAGGPSVFLFPPKPKDTLMISRTPEVTCVVVDVSQEDPEVQFNWYVDGVEVHNAKTKPREEQFNSTYRVVSVLTVLHQDWLNGKEYKCKVSNKGLPSSIEKTISKAKGQPREPQVYTLPPSQEEMTKNQVSLTCLVKGFYPSDIAVEWESNGQPENNYKTTPPVLDSDGSFFLYSRLTVDKSRWQEGNVFSCSVMHEALHNHYTQESLSLSLGGGGGSGGGGSAPAPAPAPAPAPAPAPAPAPGGGGSGGGGSDHCPLGPGRCCRLHTVRASLEELGWADWVLSPREVQVTMCIGACPSQFRAANMHAQIKTSLHRLKPDTVPAPCCVPASYNPMVLIQKTDTGVSLQTYDDLLAKDCHCI
12,2.02,Fc-GDF15 fusion protein M11 (Fc fusion) APEAAGGPSVFLFPPKPKDTLMISRTPEVTCVVVDVSQEDPEVQFNWYVDGVEVHNAKTKPREEQFNSTYRVVSVLTVLHQDWLNGKEYKCKVSNKGLPSSIEKTISKAKGQPREPQVYTLPPSQAEMTKNQVSLTCLVKGFYPSDIAVEWESNGQPENNYKTTPPVLDSDGSFFLYSRLTVDKSRWQEGNVFSCSVMHEALHNHYTQKSLSLSLGGGGGSGGGGSAPAPAPAPAPAPAPAPAPAPGGGGSGGGGSDHCPLGPGRCCRLHTVRASLEDLGWADWVLSPREVQVTMCIGACPSQFRAANMHAQIKTSLHRLKPDTVPAPCCVPASYNPMVLIQKTDTGVSLQTYDDLLAKDCHCI
13,2.66,Fc-GDF15 fusion protein M27 (Fc fusion) APEAAGGPSVFLFPPKPKDTLMISRTPEVTCVVVDVSQEDPEVQFNWYVDGVEVHNAKTKPREEQFNSTYRVVSVLTVLHQDWLNGKEYKCKVSNKGLPSSIEKTISKAKGQPREPQVYTLPPSQEEMTKNQVSLTCLVKGFYPSDIAVEWESNGQPENNYKTTPPVLDSDGSFFLYSRLTVDKSRWQEGNVFSCSVMHEALHNHYTQESLSLSLGGGGGSGGGGSAPAPAPAPAPAPAPAPAPAPGGGGSGGGGSDHCPLGPGRCCRLHTVRASLEELGWADWVLSPREVQVTMCIGACPSQFRAANMHAQIKTSLHRLRPDTVPAPCCVPASYNPMVLIQKTDTGVSLQTYDDLLAKDCHCI
14,3.08,Fc-GDF15 fusion protein M20 (Fc fusion) APEAAGGPSVFLFPPKPKDTLMISRTPEVTCVVVDVSQEDPEVQFNWYVDGVEVHNAKTKPREEQFNSTYRVVSVLTVLHQDWLNGKEYKCKVSNKGLPSSIEKTISKAKGQPREPQVYTLPPSQEEMTKNQVSLTCLVKGFYPSDIAVEWESNGQPENNYKTTPPVLDSDGSFFLYSRLTVDKSRWQEGNVFSCSVMHEALHNHYTQESLSLSLGGGGGSGGGGSAPAPAPAPAPAPAPAPAPAPGGGGSGGGGSEHCPLGPGRCCRLHTVRASLEDLGWADWVLSPREVQVTMCIGACPSQFRAANMHAQIKTSLHRLKPDTVPAPCCVPASYNPMVLIQKTDTGVSLQTYDDLLAKDCHCI
